Data: patent US8242240B2, “Anti-inflammatory compounds and uses thereof” (Yale University, priority 2000, dated 2012)

What was measured:
endogenous IKK complex = target: T1, endogenous IKK complex (Homo sapiens, UniProt Q9Y6K9); test: Anti-NEMO immunoprecipitation of the IKK complex from peptide-treated HeLa cells; format: cell-based; settings: peptide 200 μM, anti-NEMO IP, anti-IKKβ blot
T1 construct: wild-type but not mutant disrupted the formation of the endogenous IKK complex; endogenous in cells; host or cells: HeLa
Procedure: (A) Sequences of wild-type (SEQ ID NO:18) and mutant (SEQ ID NO:19 forms of IKKβ NBD peptide. (B) GST-pull-down analysis was performed using either GST-NEMO-in vitro translated IKKβ (upper panel) or GST-IKKβ-(644-756)-in vitro translated NEMO (lower panel). The assay was performed in the absence (no peptide) or presence of increasing concentrations ([…], 500 or 1000 μM) of either mutant (MUT) (SEQ ID NO:19) or wild-type (WT) NBD (SEQ ID NO:18). (C) HeLa cells were incubated with either peptide (200 μM) for the times indicated. Following lysis, the IKK complex was immunoprecipitated using anti-NEMO and the resulting immunoblot probed with anti-IKKβ. (D) Gel image showing anti-NEMO immunoprecipitation. (E) Gel image showing anti-FLAG immunoblot. (F) HeLa cells were incubated for three hours with increasing concentrations: 50, 100 or 200 μM) of each peptide followed by treatment for fifteen minutes with TNFα (10 ng/ml) as indicated (+). Following lysis, nuclear extracts were made and 10 μg of protein from each sample was used for EMSA using a specific [^32P]-labeled κB-site probe. (G) Gel image showing anti-Phospho-C-Jun immunoblot and anti-β-Actin immunoblot. […] Subsequently the cells were either treated with TNFα (10 ng/ml) as indicated (toe panel) or left untreated (bottom panel) for a further four hours after which NF-κB activation was measured by luciferase assay. […]

NF-κB = test: EMSA of nuclear extracts from TNFα-treated HeLa cells; format: cell-based, human; settings: peptide 50, 100 or 200 μM 3 h, TNFα 10 ng/ml 15 min

T1 sequence (Q9Y6K9 whole entry, one chain of several): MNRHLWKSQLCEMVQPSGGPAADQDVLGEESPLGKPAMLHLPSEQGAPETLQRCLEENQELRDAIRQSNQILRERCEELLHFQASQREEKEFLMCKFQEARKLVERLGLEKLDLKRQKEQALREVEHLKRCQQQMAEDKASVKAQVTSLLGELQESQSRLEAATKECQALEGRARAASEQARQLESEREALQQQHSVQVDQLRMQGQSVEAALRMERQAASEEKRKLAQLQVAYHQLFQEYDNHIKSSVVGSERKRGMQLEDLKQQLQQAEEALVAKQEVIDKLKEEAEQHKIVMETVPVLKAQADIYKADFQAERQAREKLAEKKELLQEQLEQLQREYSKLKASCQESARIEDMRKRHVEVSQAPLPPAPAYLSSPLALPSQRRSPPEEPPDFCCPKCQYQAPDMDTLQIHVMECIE

Row | Substance | disruption of the formation of the endogenous IKK complex (endogenous IKK complex) | inhibition of TNFα-induced activation and nuclear translocation of NF-κB (EMSA) (NF-κB)
1 | [DRQIKIWFQNRRMKWKK]TALDASALQTE (DRQIKIWFQNRRMKWKKTALDASALQTE; Description of Artificial Sequence: Synthetic Mutant NBD peptide) [identical to wild-type NBD peptide except W739 and W741 mutated to alanine, reference compound] | not | –
2 | [DRQIKIWFQNRRMKWKK]TALDWSWLQTE (DRQIKIWFQNRRMKWKKTALDWSWLQTE; Description of Unknown: Unknown wildtype NBD peptide) [wild-type NBD peptide] | disrupted | inhibited
